Patent US20240182582A1 (Janssen / Centocor, published 2024)
Changes are numbered by the printed parent chain.

Key:
GPRC5d = GPRC5d (UniProt Q9NZD1 1-345, limits assumed); assay: cell-based or functional assay
BCMA = biological target: T1, BCMA (UniProt Q02223 1-184, limits assumed); assay: cell-based or functional assay
T1 sequence (looked up): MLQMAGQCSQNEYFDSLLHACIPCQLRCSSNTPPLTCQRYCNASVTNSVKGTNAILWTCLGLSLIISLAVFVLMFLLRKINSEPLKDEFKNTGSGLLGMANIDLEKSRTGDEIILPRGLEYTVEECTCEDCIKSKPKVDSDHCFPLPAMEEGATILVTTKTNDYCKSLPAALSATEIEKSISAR

[1] = biological target: NKp46 on NKL cells / NK cells (human, UniProt O76036 22-304); assay: cell-based or functional assay
[2] = biological target: T2, NKGW1 (human NKG2d80-216 extracellular region with N-term hexahistidine tag) (human, UniProt P26718 80-216); assay: surface plasmon resonance
T2 construct: also called human NKG2d (NKGW1)
T2 sequence: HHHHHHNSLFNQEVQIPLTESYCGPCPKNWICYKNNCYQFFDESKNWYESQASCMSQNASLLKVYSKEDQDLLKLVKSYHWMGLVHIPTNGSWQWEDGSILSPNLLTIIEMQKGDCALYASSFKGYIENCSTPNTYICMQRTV

Cyno NKG2d (NKGW2.001) = biological target: T3, Cyno NKG2d (NKGW2.001) (cynomolgus monkey, UniProt P61252 80-216, limits assumed); assay: surface plasmon resonance
T3 sequence (looked up): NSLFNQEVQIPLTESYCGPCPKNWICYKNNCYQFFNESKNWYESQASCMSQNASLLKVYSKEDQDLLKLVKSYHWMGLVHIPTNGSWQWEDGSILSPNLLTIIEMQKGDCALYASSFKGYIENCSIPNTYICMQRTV

N46W3 (NKp46 D1) = biological target: T4, N46W3 (NKp46 D1) (UniProt O76036 22-120, limits assumed); assay: binding kinetics, method not named
T4 construct: domain: D1
T4 sequence (O76036 22-120 limits assumed): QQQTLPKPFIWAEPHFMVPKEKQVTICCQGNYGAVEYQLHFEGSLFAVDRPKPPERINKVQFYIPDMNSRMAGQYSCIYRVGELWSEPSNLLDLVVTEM

Sequence of NKp46 on NKL cells / NK cells (O76036 22-304): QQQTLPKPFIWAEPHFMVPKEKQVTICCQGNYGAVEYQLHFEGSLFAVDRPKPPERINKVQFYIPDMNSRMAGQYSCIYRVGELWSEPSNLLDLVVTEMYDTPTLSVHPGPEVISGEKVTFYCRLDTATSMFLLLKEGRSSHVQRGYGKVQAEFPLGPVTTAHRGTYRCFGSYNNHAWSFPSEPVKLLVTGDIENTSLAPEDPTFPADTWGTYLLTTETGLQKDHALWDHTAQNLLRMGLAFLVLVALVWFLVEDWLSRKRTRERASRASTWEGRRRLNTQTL
Sequence of GPRC5d (Q9NZD1 whole entry): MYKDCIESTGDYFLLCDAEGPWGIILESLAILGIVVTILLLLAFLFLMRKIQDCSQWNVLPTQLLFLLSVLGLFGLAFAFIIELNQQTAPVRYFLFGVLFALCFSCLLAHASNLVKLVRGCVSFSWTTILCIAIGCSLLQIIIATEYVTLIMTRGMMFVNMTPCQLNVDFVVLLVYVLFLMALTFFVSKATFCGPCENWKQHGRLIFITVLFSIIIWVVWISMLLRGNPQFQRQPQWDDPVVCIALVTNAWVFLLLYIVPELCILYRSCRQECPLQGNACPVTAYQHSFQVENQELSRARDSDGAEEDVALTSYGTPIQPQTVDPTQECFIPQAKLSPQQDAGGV

B1: NG2GB19 (bispecific antibody, human IgG1, lambda)
heavy: not shown
light: SYVLTQPPSVSVAPGQTARITCGGNNIGSKSVHWYQQKAGQAPVLVVYDDSDRPSGIPERFSGSNSGNTATLTISRVEAGDEADYYCQVWDGRSDHVVFGGGTKLTVLGQPKAAPSVTLFPPSSEELQANKATLVCLISDFYPGAVTVAWKADSSPVKAGVETTTPSKQSNNKYAASSYLSLTPEQWKSHRSYSCQVTHEGSTVEKTVAPTECS
- IC50 for BsAb cytotoxicity, H929/GFP target cells with PBMC effectors (GPRC5d): 0.0199 nM

B2: NG2GB23 (bispecific antibody, human IgG1, lambda)
heavy: EVQLLESGGGLVQPGGSLRLSCAASGFTFSIYAMTWVRQAPGKGLEWVSIISGSGDHTFYADSVKGRFTISRDNSRNTLYLQMDSLRAEDTAVYYCAKEGKWVQLSHFANWGQGTLVTVSSASTKGPSVFPLAPSSKSTSGGTAALGCLVKDYFPEPVTVSWNSGALTSGVHTFPAVLQSSGLYSLSSVVTVPSSSLGTQTYICNVNHKPSNTKVDKKVEPKSCDKTHTCPPCPAPELLGGPSVFLFPPKPKDTLMISRTPEVTCVVVDVSHEDPEVKFNWYVDGVEVHNAKTKPREEQYNSTYRVVSVLTVLHQDWLNGKEYKCKVSNKALPAPIEKTISKAKGQPREPQVYVYPPSREEMTKNQVSLTCLVKGFYPSDIAVEWESNGQPENNYKTTPPVLDSDGSFALVSKLTVDKSRWQQGNVFSCSVMHEALHNHYTQKSLSLSPGK
light: B1 light
chain: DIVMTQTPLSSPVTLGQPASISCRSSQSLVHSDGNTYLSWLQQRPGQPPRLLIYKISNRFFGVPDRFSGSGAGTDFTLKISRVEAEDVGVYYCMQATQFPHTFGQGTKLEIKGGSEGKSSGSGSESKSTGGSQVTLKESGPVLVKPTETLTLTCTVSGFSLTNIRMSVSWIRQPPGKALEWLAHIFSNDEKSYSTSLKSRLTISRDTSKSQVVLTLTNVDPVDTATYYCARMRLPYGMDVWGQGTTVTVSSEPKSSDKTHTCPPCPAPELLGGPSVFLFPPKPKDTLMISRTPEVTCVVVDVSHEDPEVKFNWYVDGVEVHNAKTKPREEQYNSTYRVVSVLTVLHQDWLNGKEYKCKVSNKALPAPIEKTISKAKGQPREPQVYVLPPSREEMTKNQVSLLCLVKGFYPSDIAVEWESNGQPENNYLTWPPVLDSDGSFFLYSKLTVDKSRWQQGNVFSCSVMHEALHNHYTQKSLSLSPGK
- IC50 for BsAb cytotoxicity, H929/GFP target cells with PBMC effectors (GPRC5d): 0.00337 nM

B3: NG2BB10 (bispecific antibody, human IgG1, lambda)
heavy: B2 heavy
light: B1 light
chain: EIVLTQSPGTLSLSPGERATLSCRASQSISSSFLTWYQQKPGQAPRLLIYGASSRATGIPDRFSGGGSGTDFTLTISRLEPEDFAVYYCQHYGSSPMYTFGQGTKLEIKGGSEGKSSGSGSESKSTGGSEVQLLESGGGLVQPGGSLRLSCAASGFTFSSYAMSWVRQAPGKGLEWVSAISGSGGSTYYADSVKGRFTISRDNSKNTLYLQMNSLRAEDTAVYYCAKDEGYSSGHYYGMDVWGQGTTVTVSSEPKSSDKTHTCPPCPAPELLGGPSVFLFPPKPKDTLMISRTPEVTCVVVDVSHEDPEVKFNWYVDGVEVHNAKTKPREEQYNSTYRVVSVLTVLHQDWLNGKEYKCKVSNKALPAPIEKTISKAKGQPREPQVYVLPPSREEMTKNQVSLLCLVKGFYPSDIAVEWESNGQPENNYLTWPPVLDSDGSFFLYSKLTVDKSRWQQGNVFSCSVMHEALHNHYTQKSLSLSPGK
- IC50 for BsAb cytotoxicity, H929/GFP target cells with PBMC effectors (BCMA): 0.0209 nM

B4: N46BB4 (bispecific antibody, human IgG1, kappa)
heavy: QLQLQESGPGPVRPSETLSLTCTVSGDSIRSSSYYWGWIRQPPGKGLDWIGSIYYTGSTYYNPSLMSRVTISVDTSKNQFSLKLSSVTAADTAVYYCASPGYSSGWSIDYWGQGTLVTVSSASTKGPSVFPLAPSSKSTSGGTAALGCLVKDYFPEPVTVSWNSGALTSGVHTFPAVLQSSGLYSLSSVVTVPSSSLGTQTYICNVNHKPSNTKVDKKVEPKSCDKTHTCPPCPAPELLGGPSVFLFPPKPKDTLMISRTPEVTCVVVDVSHEDPEVKFNWYVDGVEVHNAKTKPREEQYNSTYRVVSVLTVLHQDWLNGKEYKCKVSNKALPAPIEKTISKAKGQPREPQVYVYPPSREEMTKNQVSLTCLVKGFYPSDIAVEWESNGQPENNYKTTPPVLDSDGSFALVSKLTVDKSRWQQGNVFSCSVMHEALHNHYTQKSLSLSPGK
light: DIQLTQSPSFLSASVGDRVTITCRASQGISSYLAWYQQKPGKAPKLLIYVASTLQSGVPSRFSGSGSGTEFTLTISSLQPEDFATYYCQQLNSYPRMTFGGGTKVEIKRTVAAPSVFIFPPSDEQLKSGTASVVCLLNNFYPREAKVQWKVDNALQSGNSQESVTEQDSKDSTYSLSSTLTLSKADYEKHKVYACEVTHQGLSSPVTKSFNRGEC
chain: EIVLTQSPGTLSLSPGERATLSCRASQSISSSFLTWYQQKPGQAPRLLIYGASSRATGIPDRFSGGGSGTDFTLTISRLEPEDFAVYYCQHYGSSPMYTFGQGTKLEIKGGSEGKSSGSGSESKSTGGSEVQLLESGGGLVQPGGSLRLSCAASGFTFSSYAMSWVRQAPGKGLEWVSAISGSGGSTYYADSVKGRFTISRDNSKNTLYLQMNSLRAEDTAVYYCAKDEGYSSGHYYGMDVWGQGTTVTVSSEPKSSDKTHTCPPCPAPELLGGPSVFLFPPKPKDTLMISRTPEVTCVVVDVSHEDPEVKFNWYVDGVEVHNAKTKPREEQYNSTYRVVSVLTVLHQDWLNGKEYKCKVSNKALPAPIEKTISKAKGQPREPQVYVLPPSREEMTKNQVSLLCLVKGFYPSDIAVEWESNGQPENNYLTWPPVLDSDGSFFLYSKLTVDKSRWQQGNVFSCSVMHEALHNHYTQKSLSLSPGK
- IC50 for BsAb cytotoxicity, H929/GFP target cells with PBMC effectors (BCMA): 0.00153 nM

B5: N46BB14 (bispecific antibody, human IgG1, kappa, L234A L235A)
heavy: B4 heavy with L238A, L239A, D269S, V354T, Y355L, T370W, A409F, V411Y, H439R, Y440F
light: B4 light
chain: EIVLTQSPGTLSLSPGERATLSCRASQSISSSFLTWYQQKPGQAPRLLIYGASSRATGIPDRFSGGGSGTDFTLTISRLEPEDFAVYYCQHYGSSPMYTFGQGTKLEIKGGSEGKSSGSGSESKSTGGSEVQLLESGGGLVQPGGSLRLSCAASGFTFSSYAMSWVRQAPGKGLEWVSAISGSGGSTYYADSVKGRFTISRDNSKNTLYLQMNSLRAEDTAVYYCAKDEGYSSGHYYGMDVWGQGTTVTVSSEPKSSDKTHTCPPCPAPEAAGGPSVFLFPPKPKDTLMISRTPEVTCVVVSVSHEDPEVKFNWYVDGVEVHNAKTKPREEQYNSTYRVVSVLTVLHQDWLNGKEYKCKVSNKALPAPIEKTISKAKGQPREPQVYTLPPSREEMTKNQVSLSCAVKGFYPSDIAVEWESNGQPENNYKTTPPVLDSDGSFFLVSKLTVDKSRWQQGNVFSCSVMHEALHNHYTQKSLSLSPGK
- EC50 of cytotoxicity (hypoxia study, PBMC on MM1R/GFP cells, 48-hour endpoint) [1]: ~1.19 nM

B6: N46BB10.AFU (bispecific antibody, human IgG1, kappa)
heavy: B4 heavy with V354T, Y355L, T370W, A409F, V411Y, H439R, Y440F
light: B4 light
chain: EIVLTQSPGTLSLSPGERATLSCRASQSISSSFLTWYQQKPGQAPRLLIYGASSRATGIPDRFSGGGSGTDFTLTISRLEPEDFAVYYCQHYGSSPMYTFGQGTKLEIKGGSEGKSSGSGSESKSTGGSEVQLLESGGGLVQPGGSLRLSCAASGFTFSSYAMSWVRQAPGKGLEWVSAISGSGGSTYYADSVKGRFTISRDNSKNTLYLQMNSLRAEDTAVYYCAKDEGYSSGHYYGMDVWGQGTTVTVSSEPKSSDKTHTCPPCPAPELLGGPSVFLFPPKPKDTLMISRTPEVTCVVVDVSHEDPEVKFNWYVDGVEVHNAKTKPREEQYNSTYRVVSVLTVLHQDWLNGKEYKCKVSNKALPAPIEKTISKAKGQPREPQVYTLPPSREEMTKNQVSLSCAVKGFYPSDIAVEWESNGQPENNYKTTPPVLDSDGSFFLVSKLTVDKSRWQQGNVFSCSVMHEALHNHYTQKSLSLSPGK
- EC50 of cytotoxicity (hypoxia study, PBMC on MM1R/GFP cells) [1]: 0.006 nM

B7: N46BB10 (bispecific antibody, human IgG1, kappa)
heavy: B4 heavy with V354T, Y355L, T370W, A409F, V411Y, H439R, Y440F
light: B4 light
chain: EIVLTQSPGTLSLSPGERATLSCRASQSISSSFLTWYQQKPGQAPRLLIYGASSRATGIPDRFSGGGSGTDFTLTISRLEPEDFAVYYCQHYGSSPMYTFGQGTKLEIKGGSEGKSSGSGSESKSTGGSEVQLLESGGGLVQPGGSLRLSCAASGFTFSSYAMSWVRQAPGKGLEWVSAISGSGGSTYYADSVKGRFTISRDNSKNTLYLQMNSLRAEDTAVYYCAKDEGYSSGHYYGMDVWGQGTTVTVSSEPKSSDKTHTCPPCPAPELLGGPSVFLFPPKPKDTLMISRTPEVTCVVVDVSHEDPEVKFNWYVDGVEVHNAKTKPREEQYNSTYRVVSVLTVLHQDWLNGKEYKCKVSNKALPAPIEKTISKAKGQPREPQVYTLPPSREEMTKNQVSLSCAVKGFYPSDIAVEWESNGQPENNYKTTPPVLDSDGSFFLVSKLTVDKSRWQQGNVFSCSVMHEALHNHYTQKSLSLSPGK
- EC50 of cytotoxicity (hypoxia study, PBMC on MM1R/GFP cells) [1]: ~0.07 nM

B8: NKGB83 (antibody, human IgG1, V domains shown)
VH: EVQLVQSGAEVKKPGESLKISCKGSGYSFTSYWIGWVRQMPGKGLEWMGIIYPGDSYTRYSPSFQGQVTISADKSISTAYLQWSSLKASDTAMYYCARGGVSASGNYRALDYWGQGTLVTVSS
VL: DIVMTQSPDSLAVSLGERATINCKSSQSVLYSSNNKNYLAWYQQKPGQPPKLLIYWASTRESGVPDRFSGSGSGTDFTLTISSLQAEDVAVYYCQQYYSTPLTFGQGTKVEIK
notes: phage display panel; v-regions cloned into silent human IgG1/kappa constant regions; also called NKGB83.002
- Kd [2]: 8.2 nM
- koff [2]: 0.000941 s⁻¹
- kon [2]: 114000 M⁻¹ s⁻¹
- Kd (Cyno NKG2d (NKGW2.001)): 27.4 nM
- koff (Cyno NKG2d (NKGW2.001)): 0.00212 s⁻¹
- kon (Cyno NKG2d (NKGW2.001)): 77600 M⁻¹ s⁻¹

B9: N46B105 (antibody, V domains shown)
VH: QLQLQESGPGPVRPSETLSLTCTVSGDSIRSSSYYWGWIRQPPGKGLDWIGSIYYTGSTYYNPSLMSRVTISVDTSKNQFSLKLSSVTAADTAVYYCASPGYSSGWSIDYWGQGTLVTVSS
VL: DIQLTQSPSFLSASVGDRVTITCRASQGISSYLAWYQQKPGKAPKLLIYVASTLQSGVPSRFSGSGSGTEFTLTISSLQPEDFATYYCQQLNSYPRMTFGGGTKVEIK
notes: also called VR000044289
- Kd (N46W3 (NKp46 D1)): 3.5 nM

B10: NKGB125 (antibody, human IgG1, V domains shown)
VH: EVQLLESGGGLVQPGGSLRLSCAASGFTFSIYAMTWVRQAPGKGLEWVSIISGSGDHTFYADSVKGRFTISRDNSRNTLYLQMDSLRAEDTAVYYCAKEGKWVQLSHFANWGQGTLVTVSS
VL: SYVLTQPPSVSVAPGQTARITCGGNNIGSKSVHWYQQKAGQAPVLVVYDDSDRPSGIPERFSGSNSGNTATLTISRVEAGDEADYYCQVWDGRSDHVVFGGGTKLTVL
notes: OmniRat hybridoma clone; v-regions cloned into human IgG1 sigma and lambda constant regions; also called NKGB125.002; NKGY1_045_F04
- Kd [2]: 0.05 nM
- koff [2]: 3.85e-05 s⁻¹
- kon [2]: 751000 M⁻¹ s⁻¹
- Kd (Cyno NKG2d (NKGW2.001)): 0.1 nM
- koff (Cyno NKG2d (NKGW2.001)): 5.84e-05 s⁻¹
- kon (Cyno NKG2d (NKGW2.001)): 571000 M⁻¹ s⁻¹

B11: NG2BB9 (bispecific antibody, human IgG1, kappa)
heavy: EVQLVQSGAEVKKPGESLKISCKGSGYSFTSYWIGWVRQMPGKGLEWMGIIYPGDSYTRYSPSFQGQVTISADKSISTAYLQWSSLKASDTAMYYCARGGVSASGNYRALDYWGQGTLVTVSSASTKGPSVFPLAPSSKSTSGGTAALGCLVKDYFPEPVTVSWNSGALTSGVHTFPAVLQSSGLYSLSSVVTVPSSSLGTQTYICNVNHKPSNTKVDKKVEPKSCDKTHTCPPCPAPELLGGPSVFLFPPKPKDTLMISRTPEVTCVVVDVSHEDPEVKFNWYVDGVEVHNAKTKPREEQYNSTYRVVSVLTVLHQDWLNGKEYKCKVSNKALPAPIEKTISKAKGQPREPQVYVYPPSREEMTKNQVSLTCLVKGFYPSDIAVEWESNGQPENNYKTTPPVLDSDGSFALVSKLTVDKSRWQQGNVFSCSVMHEALHNHYTQKSLSLSPGK
light: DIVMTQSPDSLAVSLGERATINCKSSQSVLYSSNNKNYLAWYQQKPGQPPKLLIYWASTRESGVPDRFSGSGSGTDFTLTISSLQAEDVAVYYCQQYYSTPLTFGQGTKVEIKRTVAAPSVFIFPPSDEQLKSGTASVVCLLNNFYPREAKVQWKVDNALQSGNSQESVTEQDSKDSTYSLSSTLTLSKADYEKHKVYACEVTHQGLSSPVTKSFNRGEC
chain: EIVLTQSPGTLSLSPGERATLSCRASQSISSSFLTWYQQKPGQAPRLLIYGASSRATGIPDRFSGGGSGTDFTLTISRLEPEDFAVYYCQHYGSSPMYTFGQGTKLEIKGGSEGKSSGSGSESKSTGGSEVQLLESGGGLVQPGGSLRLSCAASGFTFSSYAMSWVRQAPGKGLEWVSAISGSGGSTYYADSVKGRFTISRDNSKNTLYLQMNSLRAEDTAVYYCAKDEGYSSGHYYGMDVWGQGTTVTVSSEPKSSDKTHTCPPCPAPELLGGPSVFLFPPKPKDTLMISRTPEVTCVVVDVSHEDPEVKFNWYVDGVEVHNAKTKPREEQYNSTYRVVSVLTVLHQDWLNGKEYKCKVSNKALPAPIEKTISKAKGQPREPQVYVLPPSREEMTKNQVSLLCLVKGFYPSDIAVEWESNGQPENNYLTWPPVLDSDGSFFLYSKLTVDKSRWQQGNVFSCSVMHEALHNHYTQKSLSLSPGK
- IC50 for BsAb cytotoxicity, H929/GFP target cells with PBMC effectors (BCMA): 0.00722 nM

B12: NG2GB24 (bispecific antibody, human IgG1, kappa)
heavy: B11 heavy
light: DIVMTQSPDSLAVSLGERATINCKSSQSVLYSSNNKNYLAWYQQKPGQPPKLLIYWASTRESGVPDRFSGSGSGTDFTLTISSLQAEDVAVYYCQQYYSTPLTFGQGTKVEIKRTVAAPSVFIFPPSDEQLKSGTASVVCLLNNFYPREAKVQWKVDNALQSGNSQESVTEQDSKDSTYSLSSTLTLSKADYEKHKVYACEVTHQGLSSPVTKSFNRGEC
chain: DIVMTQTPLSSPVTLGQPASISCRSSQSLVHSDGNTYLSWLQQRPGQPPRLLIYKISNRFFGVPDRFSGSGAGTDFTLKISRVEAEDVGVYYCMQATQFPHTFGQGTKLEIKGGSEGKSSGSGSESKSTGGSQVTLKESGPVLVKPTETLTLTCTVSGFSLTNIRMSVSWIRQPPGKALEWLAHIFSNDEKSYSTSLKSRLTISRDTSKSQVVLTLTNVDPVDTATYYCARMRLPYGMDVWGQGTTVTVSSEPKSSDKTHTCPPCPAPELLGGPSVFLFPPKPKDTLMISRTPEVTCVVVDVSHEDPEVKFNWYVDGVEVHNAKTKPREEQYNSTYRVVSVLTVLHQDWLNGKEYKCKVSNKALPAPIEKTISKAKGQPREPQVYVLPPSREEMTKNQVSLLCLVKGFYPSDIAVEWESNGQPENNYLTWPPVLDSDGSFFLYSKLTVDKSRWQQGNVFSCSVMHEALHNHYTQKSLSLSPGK
- IC50 for BsAb cytotoxicity, H929/GFP target cells with PBMC effectors (GPRC5d): 0.0144 nM
